From PMC12412572, “Natural Allelic Variations in IbCHYR1–IbZnFR Complex Regulate Fusarium Root Rot Resistance in Sweet Potato”

Biological target: T1, IbZnFR (CCCH-type zinc-finger protein) (Ipomoea batatas, UniProt A0A6M2VA70 1-565)
T1 sequence: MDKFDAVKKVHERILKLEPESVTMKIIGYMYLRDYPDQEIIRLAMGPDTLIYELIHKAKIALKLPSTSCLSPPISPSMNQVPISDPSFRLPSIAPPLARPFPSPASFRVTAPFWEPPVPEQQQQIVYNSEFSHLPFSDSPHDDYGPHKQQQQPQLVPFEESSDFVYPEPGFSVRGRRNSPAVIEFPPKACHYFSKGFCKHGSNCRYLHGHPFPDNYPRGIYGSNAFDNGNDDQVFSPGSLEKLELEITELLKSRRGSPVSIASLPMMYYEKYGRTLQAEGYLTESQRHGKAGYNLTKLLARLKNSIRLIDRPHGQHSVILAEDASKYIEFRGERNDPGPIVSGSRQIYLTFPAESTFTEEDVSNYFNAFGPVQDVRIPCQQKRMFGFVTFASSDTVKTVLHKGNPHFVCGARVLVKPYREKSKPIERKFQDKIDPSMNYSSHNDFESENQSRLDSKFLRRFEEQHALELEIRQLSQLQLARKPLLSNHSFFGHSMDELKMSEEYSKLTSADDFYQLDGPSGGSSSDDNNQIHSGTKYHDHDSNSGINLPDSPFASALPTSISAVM
Assay: EMSA; LightShift Chemiluminescent EMSA Kit (Thermo), manufacturer's instructions; buffer, salt, pH and temperature not stated
Conditions: protein: recombinant; tags: His (pET-28a); label: 5' biotin; blunt

B1: IbCSLE1 promoter wt probe (dsDNA)
DNA 1: ATAGTCTTTGTAGGGAGACACAGACACCAT
DNA 2: ATGGTGTCTGTGTCTCCCTACAAAGACTAT
B1: binds.

B2: IbMDAR4 promoter wt probe (dsDNA)
DNA 1: ACATTTACCCGGGAGAACGGATAACG
DNA 2: CGTTATCCGTTCTCCCGGGTAAATGT
B2: binds.

B3: IbPR5 promoter wt probe (dsDNA)
DNA 1: ATTGTACTAAAAGGGAGAGGATACAAGGTT
DNA 2: AACCTTGTATCCTCTCCCTTTTAGTACAAT
B3: binds.

B4: IbMRL7L promoter wt probe (dsDNA)
DNA 1: CTTCTTATCCCTCTAACTTTCCTACA
DNA 2: TGTAGGAAAGTTAGAGGGATAAGAAG
B4: binds.

B5: IbCOMT promoter wt probe (dsDNA)
DNA 1: AAACCGTTCTCTCTCTTCTTCTTCATCTTC
DNA 2: GAAGATGAAGAAGAAGAGAGAGAACGGTTT
B5: binds.
